# B1: SEQ ID NO 102 (designed binder)
# chain: MLPAPKNLVVSRVTEDSARLSWTAPDAAFDSFSIDYDEPQPVGEAIVLTVPGSERSYDLTGLKPGTEYRVDIWGVKGGPTSGPLRATFTT
# notes: FN3 domain
# B2: SEQ ID NO 213 (designed binder)
# chain: MLPAPKNLVVSRVTEDSARLSWTAPDAAFDSFWIYYWEIERAGEAIRLDVPGSERSYDLTGLKPGTEYRVDIWGVKGGPTSGPLRATFTT
# notes: FN3 domain
# B3: SEQ ID NO 103 (designed binder)
# chain: MLLAPKNLVVSRVTEDSARLSWTAPDAAFDSFAIEYFEYTGEGEAIVLTVPGSERSYDLTGLKPGTEYYVGIYGVKGGYLSRPLSAIFTT
# notes: FN3 domain
# B4: SEQ ID NO 106 (designed binder)
# chain: MLPAPKNLVVSRVTEDSARLSWTAPDAAFDSFTIAYEEHGLVGEAIYLRVPGSERSYDLTGLKPGTEYHVGIMGVKGGVFSSPLSAIFTT
# notes: FN3 domain
# B5: SEQ ID NO 107 (designed binder)
# chain: MLPAPKNLVVSRVTEDSARLSWTAPDAAFDSFFIQYTESHWVGEAIVLTVPGSERSYDLTGLKPGTEYAVPIEGVKGGDSSTPLSAIFTT
# notes: FN3 domain
# B6: SEQ ID NO 109 (designed binder)
# chain: MLPAPKNLVVSRVTEDSARLSWTAPDAAFDSFHIAYEELVTEGEAIYLRVPGSERSYDLTGLKPGTEYLVDIEGVKGGHLSSPLSAIFTT
# notes: FN3 domain
# B7: SEQ ID NO 162 (designed binder)
# chain: MLPAPKNLVVSRVTEDSARLSWTAPDAAFDSFHIAYEEATTYGEAIFLRVPGSERSYDLTGLKPGTEYDVWIEGVKGGTISGPLSAIFTT
# notes: FN3 domain
# B8: SEQ ID NO 220 (designed binder)
# chain: MLPAPKNLVVSRVTEDSARLSWTAPDAAFDSFHIIYEEDGTEGEAIYLRVPGSERSYDLTGLKPGTEYEVDIEGVKGGVLSWPLFAEFTT
# notes: FN3 domain
# B9: SEQ ID NO 111 (designed binder)
# chain: MLPAPKNLVVSRVTEDSARLSWTAPDAAFDSFWIYYYESVGTGEAIVLTVPGSERSYDLTGLKPGTEYFVDISGVKVGTYSLPLSAIFTT
# notes: FN3 domain
# B10: SEQ ID NO 113 (designed binder)
# chain: MLPAPKNLVVSRVTEDSARLSWTAPDAAFDSFDIHYKEHSWWGEAIVLTVPGSERSYDLTGLKPGTEYIVPIPGVKGGGISRPLSAIFTT
# notes: FN3 domain
# B11: SEQ ID NO 119 (designed binder)
# chain: MLPAPKNLVVSRVTEDSARLSWTAPDAAFDSFHIEYEETPQKGEAIFLRVPGSERSYDLTGLKPGTEYVVNIRGVKGGDLSSPLGALFTT
# notes: FN3 domain
# B12: SEQ ID NO 120 (designed binder)
# chain: MLPAPKNLVVSRVTEDSARLSWTAPDAAFDSFRIEYIEWWVGGEAIVLTVPGSERSYDLTGLKPGTEYWVDIKGVKGGKRSYPLSAIFTT
# notes: FN3 domain
# B13: SEQ ID NO 121 (designed binder)
# chain: MLPAPKNLVVSRVTEDSARLSWTAPDAAFDSFSIDYPEFPVRGEAIVLTVPGSERSYDLTGPKPGTEYNVTIQGVKGGFPSMPLSAIFTT
# notes: FN3 domain
# B14: SEQ ID NO 124 (designed binder)
# chain: MLPAPKNLVVSRVTEDSARLSWTAPDAAFDSFSIDYPEFPVRGEAIVLTVPGSERSYDLTGLKPGTEYAVTIWGVKGGFTSQPLSAIFTT
# notes: FN3 domain
# B15: SEQ ID NO 126 (designed binder)
# chain: MLPAPKNLVVSRVTEDSARLSWTAPDAAFDSFSIDYLELGESGEAIVLTVPGSERSYDLTGLKPGTEYWVYIFGVKGGYPSAPLSAIFTT
# notes: FN3 domain
# B16: SEQ ID NO 127 (designed binder)
# chain: MLPAPKNLVVSRVTEDSARLSWTAPDAAFDSFPIPYGESPPSGEAIVLTVPGSERSYDLTGLKPGTEYVVIIRGVKGGGRSGPLSAISTT
# notes: FN3 domain
# B17: SEQ ID NO 128 (designed binder)
# chain: MLPAPKNLVVSRVTEDSARLSWTAPDAAFDSFIINYIEIVQYGEAIVLTVPGSERSYDLTGLKPGTEYPESIWGVKGGGASSPLSAIFTT
# notes: FN3 domain
# B18: SEQ ID NO 129 (designed binder)
# chain: MLPAPKNLVVSRVTEDSARLSWTAPDAAFDSFDIEYYEAVGAGEAIVLTVPGSERSYDLTGLKPGTEYTVGIYGVKGGWLSKPLSVIFTT
# notes: FN3 domain
# B19: SEQ ID NO 130 (designed binder)
# chain: MLPAPKNLVVSRVTEDSARLSWTAPDAAFDSFHIPYVEAEVPGEAIQLHVPGSERSYDLTGLKPGTEYYVEIWGVKGGFYSPPLIAEFTT
# notes: FN3 domain
# B20: SEQ ID NO 139 (designed binder)
# chain: MLPAPKNLVVSRVTEDSARLSWTAPDAAFDSFDISYWESGKYGEAIVLTVPGSESSYDLTGLKPGTEYLVDIFGVKGGYPSEPLSAIFTT
# notes: FN3 domain
# B21: SEQ ID NO 140 (designed binder)
# chain: MLPAPKNLVVSRVTEDSARLSWTAPDAAFDSFWISYEESDTEGEAIYLRVPGSERSYDLTGLKPGTEYNVTIQGVKGGFPSMPLSAIFTT
# notes: FN3 domain
# B22: SEQ ID NO 142 (designed binder)
# chain: MLPAPKNLVVSRVTKDSARLSWTAPDAAFDSFHIAYEEATTYGEAIFLRVPGSERSYDLTGLKPGTEYEVKIHGVKGGADSKPLVAPFTT
# notes: FN3 domain
# B23: SEQ ID NO 143 (designed binder)
# chain: MLPAPKNLVVSRVTEDSARLSWTAPDAAFDSFHIAYEEADSEGEAIYLRVPGSERSYDLTGLKPGTEYSVNIQGVKGGIVSFPLHAEFTT
# notes: FN3 domain
# B24: SEQ ID NO 148 (designed binder)
# chain: MLPAPKNLVVSRVTEDSARLSWTAPDAAFDSFHIEYEEQYSTGEAIYLRVPGSERSYDLTGLKPGTEYHVDIEGVKGGRRSFPLNAFFTT
# notes: FN3 domain
# B25: SEQ ID NO 153 (designed binder)
# chain: MLPAPKNLVVSRVTEDSARLSWTAPDAALDSFRIAYTEYFVGGEAIVLTVPGSERSYDLTGLKPGTEYGVGIYGVKGGAGSSPLSAIFTT
# notes: FN3 domain
# B26: SEQ ID NO 155 (designed binder)
# chain: MLPAPKNLVVSRVTEDSARLSWTAPDAAFDSFPITYRERSQYGEAIVLTVPGSERSYDLTGLKPGTEYVVPIEGVKGGRGSKPLSAIFTT
# notes: FN3 domain
# B27: SEQ ID NO 157 (designed binder)
# chain: MLPAPKNLVVSRVTEDSARLSWTAPDAAFDSFAIEYYEYVGNGEAIVLTVPGSERSYDLTGLKPGTEYQVGIYGVKGGYYSRPLSAIFTT
# notes: FN3 domain
# B28: SEQ ID NO 161 (designed binder)
# chain: MLPAPKNLVVSRVTEDSARLSWTAPDAAFDSFTIRYWEELPTGEAIVLTVPGSERSYDLTGLKPGTEYTVEIFGVKGGYLSRPLSAISTT
# notes: FN3 domain
# B29: SEQ ID NO 171 (designed binder)
# chain: MLPAPKNLVVSRVTEDSARLSWTAPDAAFDSFAIRYLEWWDVGEAIVLTVPGSERSYDLTGLKPGTEYLVEIKGVKGGKFSYPLSAIFTT
# notes: FN3 domain
# B30: SEQ ID NO 172 (designed binder)
# chain: MLPAPKNLVVSRVTEDSARLSWTAPDAAFDSFPIEYDEWWALGEAITLIVPASERSYDLTGLKPGTEYVVKIHGVKGGQRSYPLIAFFTT
# notes: FN3 domain
# B31: SEQ ID NO 173 (designed binder)
# chain: MLPAPKNLVVSRVTEDSARLSWTAPDAAFDSFTIHYRELYVQAIVLTVPGSERSYDLTGLKPGTEYLVMIPGVKGGPTSVPLSAIFTT
# notes: FN3 domain
# B32: SEQ ID NO 184 (designed binder)
# chain: MLPAPKNLVVSRITEDSARLSWTAPDAAFDSFGIGYYEHKRFGEAIQLSVPGSERSYDLTGLKPGTEYEVDIEGVKGGVLSWPLFAEFTT
# notes: FN3 domain
# B33: SEQ ID NO 186 (designed binder)
# chain: MLPAPKNLVVSRVTEDSARLSWTAPDAAFDSFFIGYLESAEAIVLTVPGSERSYDLTGLKPGTEYLVTIQGVKGGIASDPLSAIFTT
# notes: FN3 domain
# B34: SEQ ID NO 189 (designed binder)
# chain: MLPAPKNLVVSRVTEDSARLSWTAPDAAFDSFHEWVYFGEAIVLTVPGSERSYDLTGLKPGTEYFVDIWGVKGGTVSKPLSAIFTT
# notes: FN3 domain
# B35: SEQ ID NO 191 (designed binder)
# chain: MLPAPENLVVSRVTEDSARLSWTAPDAAFDSFEITYEENWRRGEAIVLTVPGSERSYDLTGPKPGTEYIVIIQGVKGGAESWPLSAIFTT
# notes: FN3 domain
# B36: SEQ ID NO 196 (designed binder)
# chain: MLPAPKNLVVSRVTEDSARLSWTAPDAAFDSFNIHYVEWWVLGEAIVLTVPGSERSYDLTGLKPGTEYPVYIYGVKGGPKSIPLSAIFTT
# notes: FN3 domain
# Tests used:
# [1] = target: T1, recombinant biotinylated CD71 extracellular domain (Sino Biologics) with an N-terminal 6His tag (human, UniProt P02786 89-760, biotinylated (sites not given)); test: screening ELISA
# T1 construct: extracellular domain; also called hCD71; huCD71
# T1 sequence (P02786 other isoform, or with tags, fused parts or gaps): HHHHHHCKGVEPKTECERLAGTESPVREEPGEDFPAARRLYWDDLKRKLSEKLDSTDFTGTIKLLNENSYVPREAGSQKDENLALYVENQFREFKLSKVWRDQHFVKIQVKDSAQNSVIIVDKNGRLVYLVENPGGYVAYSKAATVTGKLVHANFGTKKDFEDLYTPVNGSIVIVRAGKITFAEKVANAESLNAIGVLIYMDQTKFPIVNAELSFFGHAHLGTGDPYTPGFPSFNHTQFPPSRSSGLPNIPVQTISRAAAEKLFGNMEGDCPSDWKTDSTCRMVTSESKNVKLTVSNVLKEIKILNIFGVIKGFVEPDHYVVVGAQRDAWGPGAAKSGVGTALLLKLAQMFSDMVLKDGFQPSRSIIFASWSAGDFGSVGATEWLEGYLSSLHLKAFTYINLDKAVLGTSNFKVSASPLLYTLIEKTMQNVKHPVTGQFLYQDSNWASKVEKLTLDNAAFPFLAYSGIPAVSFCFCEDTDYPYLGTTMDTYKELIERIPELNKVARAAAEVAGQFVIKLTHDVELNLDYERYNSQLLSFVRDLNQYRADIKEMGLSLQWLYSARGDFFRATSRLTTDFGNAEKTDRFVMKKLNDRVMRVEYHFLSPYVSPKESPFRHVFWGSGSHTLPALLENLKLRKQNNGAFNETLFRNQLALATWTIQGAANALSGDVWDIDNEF
# [2] = target: T1, recombinant biotinylated CD71 …; test: screening ELISA, ratio
binder,measurement,setting,value
B1,hCD71,[1],3.48e+06
same,hCD71:HSA,[2],258
B2,hCD71,[1],2.11e+06
same,hCD71:HSA,[2],215
B3,hCD71,[1],4.83e+06
same,hCD71:HSA,[2],4020
B4,hCD71,[1],594000
same,hCD71:HSA,[2],495
B5,hCD71,[1],420000
same,hCD71:HSA,[2],104
B6,hCD71,[1],4.83e+06
same,hCD71:HSA,[2],3860
B7,hCD71,[1],3.88e+06
same,hCD71:HSA,[2],2100
B8,hCD71,[1],4.25e+06
same,hCD71:HSA,[2],452
B9,hCD71,[1],2.4e+06
same,hCD71:HSA,[2],322
B10,hCD71,[1],2.14e+06
same,hCD71:HSA,[2],95
B11,hCD71,[1],3.16e+06
same,hCD71:HSA,[2],1710
B12,hCD71,[1],3.64e+06
same,hCD71:HSA,[2],1970
B13,hCD71,[1],2.37e+06
same,hCD71:HSA,[2],83
B14,hCD71,[1],605000
same,hCD71:HSA,[2],175
B15,hCD71,[1],4.49e+06
same,hCD71:HSA,[2],2570
B16,hCD71,[1],3.56e+06
same,hCD71:HSA,[2],38
B17,hCD71,[1],664000
same,hCD71:HSA,[2],204
B18,hCD71,[1],2.31e+06
same,hCD71:HSA,[2],1540
B19,hCD71,[1],1.45e+06
same,hCD71:HSA,[2],239
B20,hCD71,[1],3.03e+06
same,hCD71:HSA,[2],1440
B21,hCD71,[1],4.18e+06
same,hCD71:HSA,[2],2610
B22,hCD71,[1],3.41e+06
same,hCD71:HSA,[2],1000
B23,hCD71,[1],3.94e+06
same,hCD71:HSA,[2],426
B24,hCD71,[1],3.98e+06
same,hCD71:HSA,[2],1990
B25,hCD71,[1],957000
same,hCD71:HSA,[2],73
B26,hCD71,[1],1.84e+06
same,hCD71:HSA,[2],71
B27,hCD71,[1],2.66e+06
same,hCD71:HSA,[2],1080
B28,hCD71,[1],1.21e+06
same,hCD71:HSA,[2],240
B29,hCD71,[1],3.72e+06
same,hCD71:HSA,[2],1960
B30,hCD71,[1],4.31e+06
same,hCD71:HSA,[2],1160
B31,hCD71,[1],979000
same,hCD71:HSA,[2],47
B32,hCD71,[1],470000
same,hCD71:HSA,[2],235
B33,hCD71,[1],2.02e+06
same,hCD71:HSA,[2],1090
B34,hCD71,[1],1.96e+06
same,hCD71:HSA,[2],29
B35,hCD71,[1],1.47e+06
same,hCD71:HSA,[2],43
B36,hCD71,[1],1.72e+06
same,hCD71:HSA,[2],50
